The values below come from patent US20150274836A1 (US Dept. of Health and Human Services, published 2015).

Broadly, the Kd is the concentration at which binding is half-saturated.

In experiment [1] the target is T1, SD1-human Fc fusion protein (human, UniProt P01857 104-330 = IgG part).
T1 construct: domain: CH2 and CH3 in the constant region of human IgG heavy chain gamma 1; also called SD1-hFc
Description: ELISA on coated human mesothelin protein (FIG. 3C). (In general: ELISA stands for enzyme-linked immunosorbent assay.)

The target in experiment [2] is T1, SD1-human Fc fusion protein. Put plainly: ELISA on coated human mesothelin protein, equilibrium constant by Prism / Scatchard.
Experiment [3] has the same target. Put plainly: direct ELISA, coated antigen.

T1 sequence (P01857 other isoform, or with tags, fused parts or gaps limits assumed): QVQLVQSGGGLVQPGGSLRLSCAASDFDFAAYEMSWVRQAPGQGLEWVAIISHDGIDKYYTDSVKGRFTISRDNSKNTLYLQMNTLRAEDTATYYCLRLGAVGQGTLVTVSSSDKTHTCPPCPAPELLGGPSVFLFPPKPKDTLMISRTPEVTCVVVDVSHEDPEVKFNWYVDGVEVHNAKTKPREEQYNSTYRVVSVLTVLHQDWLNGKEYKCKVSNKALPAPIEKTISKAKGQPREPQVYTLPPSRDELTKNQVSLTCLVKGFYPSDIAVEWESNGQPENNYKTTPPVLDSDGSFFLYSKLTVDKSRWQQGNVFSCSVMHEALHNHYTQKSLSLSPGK

B1: full-length human mesothelin protein (other)
chain: EVEKTACPSGKKAPEIDESLIFYKKWELEACVDAALLATQMDRVNAIPFTYEQLDVLKHKLDELYPQGYPESVIQHLGYLFLKMSPEDIRKWNVTSLETLKALLEVNKGHEMSPQVATLIDRFVKGRGQLDKDTLDTLTAFYPGYLCSLSPEELSSVPPSSIWAVRPQDLDTCDPRQLDVLYPKARLAFQNMNGSEYFVKIQSFLGGAPTEDLKALSQQNVSMDLATFMKLRTDAVLPLTVAEVQKLLGPHVEGLKAEERHRPVRDWILRQRQDDLDTLGLGLQGGIPNGYLVLDLSMQEALS
notes: also called MSLN; full-length mesothelin
With B1, the Kd in experiment [1] and in experiment [2] was 13.6 nM in each case.

B2: full-length mouse mesothelin protein (other)
chain: DAEQKACPPGKEPYKVDEDLIFYQNWELEACVDGTMLARQMDLVNEIPFTYEQLSIFKHKLDKTYPQGYPESLIQQLGHFFRYVSPEDIHQWNVTSPDTVKTLLKVSKGQKMNAQAIALVACYLRGGGQLDEDMVKALGDIPLSYLCDFSPQDLHSVPSSVMWLVGPQDLDKCSQRHLGLLYQKACSAFQNVSGLEYFEKIKTFLGGASVKDLRALSQHNVSMDIATFKRLQVDSLVGLSVAEVQKLLGPNIVDLKTEEDKSPVRDWLFRQHQKDLDRLGLGLQGGIPNGYLVLDFNVREAFS
notes: also called mMSLN; murine mesothelin
B2: the binding result in experiment [3] was “no binding”.
